T1: His–rad1R218A–Rad10 (S. cerevisiae, UniProt P06777 1-1100; P06838 1-210, R218A)
T1 sequence (looked up) 1: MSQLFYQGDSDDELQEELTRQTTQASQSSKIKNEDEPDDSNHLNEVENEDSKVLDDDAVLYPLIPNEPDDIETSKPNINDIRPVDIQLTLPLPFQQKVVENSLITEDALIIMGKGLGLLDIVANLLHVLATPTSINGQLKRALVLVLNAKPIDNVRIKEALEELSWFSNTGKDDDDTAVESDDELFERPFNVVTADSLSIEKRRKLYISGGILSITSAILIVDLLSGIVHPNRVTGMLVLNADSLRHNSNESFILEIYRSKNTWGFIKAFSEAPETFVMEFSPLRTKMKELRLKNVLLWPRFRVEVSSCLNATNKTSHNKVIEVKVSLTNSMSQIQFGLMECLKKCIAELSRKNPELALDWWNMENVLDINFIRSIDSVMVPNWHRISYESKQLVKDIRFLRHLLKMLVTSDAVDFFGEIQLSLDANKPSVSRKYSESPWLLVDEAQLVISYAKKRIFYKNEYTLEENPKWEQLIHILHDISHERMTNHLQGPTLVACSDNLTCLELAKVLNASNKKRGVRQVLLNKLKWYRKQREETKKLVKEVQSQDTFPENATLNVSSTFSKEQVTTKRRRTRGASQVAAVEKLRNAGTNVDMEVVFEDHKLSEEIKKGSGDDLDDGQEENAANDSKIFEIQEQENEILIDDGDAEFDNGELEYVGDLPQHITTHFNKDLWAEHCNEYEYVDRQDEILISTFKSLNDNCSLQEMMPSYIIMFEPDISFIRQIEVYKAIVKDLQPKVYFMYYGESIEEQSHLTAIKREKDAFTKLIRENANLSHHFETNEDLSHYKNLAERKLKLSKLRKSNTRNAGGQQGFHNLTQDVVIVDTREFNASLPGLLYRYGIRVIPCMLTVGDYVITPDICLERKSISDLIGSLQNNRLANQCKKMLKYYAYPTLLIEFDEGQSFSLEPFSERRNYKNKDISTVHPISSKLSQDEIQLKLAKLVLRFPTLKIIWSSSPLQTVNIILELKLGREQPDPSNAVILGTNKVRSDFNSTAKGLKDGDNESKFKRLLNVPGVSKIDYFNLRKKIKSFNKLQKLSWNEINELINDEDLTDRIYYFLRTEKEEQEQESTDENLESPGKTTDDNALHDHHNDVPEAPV
T1 sequence (looked up) 2: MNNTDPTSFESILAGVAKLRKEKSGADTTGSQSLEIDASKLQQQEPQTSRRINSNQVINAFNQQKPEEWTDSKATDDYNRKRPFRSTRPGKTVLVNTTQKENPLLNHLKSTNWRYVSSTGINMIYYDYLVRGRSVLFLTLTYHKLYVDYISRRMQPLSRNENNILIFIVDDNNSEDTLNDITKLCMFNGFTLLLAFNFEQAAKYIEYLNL

B1: His–rad1R203A,K205A–Rad10 (complex, S. cerevisiae)
chain 1: MSQLFYQGDSDDELQEELTRQTTQASQSSKIKNEDEPDDSNHLNEVENEDSKVLDDDAVLYPLIPNEPDDIETSKPNINDIRPVDIQLTLPLPFQQKVVENSLITEDALIIMGKGLGLLDIVANLLHVLATPTSINGQLKRALVLVLNAKPIDNVRIKEALEELSWFSNTGKDDDDTAVESDDELFERPFNVVTADSLSIEKARALYISGGILSITSRILIVDLLSGIVHPNRVTGMLVLNADSLRHNSNESFILEIYRSKNTWGFIKAFSEAPETFVMEFSPLRTKMKELRLKNVLLWPRFRVEVSSCLNATNKTSHNKVIEVKVSLTNSMSQIQFGLMECLKKCIAELSRKNPELALDWWNMENVLDINFIRSIDSVMVPNWHRISYESKQLVKDIRFLRHLLKMLVTSDAVDFFGEIQLSLDANKPSVSRKYSESPWLLVDEAQLVISYAKKRIFYKNEYTLEENPKWEQLIHILHDISHERMTNHLQGPTLVACSDNLTCLELAKVLNASNKKRGVRQVLLNKLKWYRKQREETKKLVKEVQSQDTFPENATLNVSSTFSKEQVTTKRRRTRGASQVAAVEKLRNAGTNVDMEVVFEDHKLSEEIKKGSGDDLDDGQEENAANDSKIFEIQEQENEILIDDGDAEFDNGELEYVGDLPQHITTHFNKDLWAEHCNEYEYVDRQDEILISTFKSLNDNCSLQEMMPSYIIMFEPDISFIRQIEVYKAIVKDLQPKVYFMYYGESIEEQSHLTAIKREKDAFTKLIRENANLSHHFETNEDLSHYKNLAERKLKLSKLRKSNTRNAGGQQGFHNLTQDVVIVDTREFNASLPGLLYRYGIRVIPCMLTVGDYVITPDICLERKSISDLIGSLQNNRLANQCKKMLKYYAYPTLLIEFDEGQSFSLEPFSERRNYKNKDISTVHPISSKLSQDEIQLKLAKLVLRFPTLKIIWSSSPLQTVNIILELKLGREQPDPSNAVILGTNKVRSDFNSTAKGLKDGDNESKFKRLLNVPGVSKIDYFNLRKKIKSFNKLQKLSWNEINELINDEDLTDRIYYFLRTEKEEQEQESTDENLESPGKTTDDNALHDHHNDVPEAPV
chain 2: MNNTDPTSFESILAGVAKLRKEKSGADTTGSQSLEIDASKLQQQEPQTSRRINSNQVINAFNQQKPEEWTDSKATDDYNRKRPFRSTRPGKTVLVNTTQKENPLLNHLKSTNWRYVSSTGINMIYYDYLVRGRSVLFLTLTYHKLYVDYISRRMQPLSRNENNILIFIVDDNNSEDTLNDITKLCMFNGFTLLLAFNFEQAAKYIEYLNL
B2: Msh2–Msh3 (complex, S. cerevisiae)
chain 1: MSSTRPELKFSDVSEERNFYKKYTGLPKKPLKTIRLVDKGDYYTVIGSDAIFVADSVYHTQSVLKNCQLDPVTAKNFHEPTKYVTVSLQVLATLLKLCLLDLGYKVEIYDKGWKLIKSASPGNIEQVNELMNMNIDSSIIIASLKVQWNSQDGNCIIGVAFIDTTAYKVGMLDIVDNEVYSNLESFLIQLGVKECLVQDLTSNSNSNAEMQKVINVIDRCGCVVTLLKNSEFSEKDVELDLTKLLGDDLALSLPQKYSKLSMGACNALIGYLQLLSEQDQVGKYELVEHKLKEFMKLDASAIKALNLFPQGPQNPFGSNNLAVSGFTSAGNSGKVTSLFQLLNHCKTNAGVRLLNEWLKQPLTNIDEINKRHDLVDYLIDQIELRQMLTSEYLPMIPDIRRLTKKLNKRGNLEDVLKIYQFSKRIPEIVQVFTSFLEDDSPTEPVNELVRSVWLAPLSHHVEPLSKFEEMVETTVDLDAYEENNEFMIKVEFNEELGKIRSKLDTLRDEIHSIHLDSAEDLGFDPDKKLKLENHHLHGWCMRLTRNDAKELRKHKKYIELSTVKAGIFFSTKQLKSIANETNILQKEYDKQQSALVREIINITLTYTPVFEKLSLVLAHLDVIASFAHTSSYAPIPYIRPKLHPMDSERRTHLISSRHPVLEMQDDISFISNDVTLESGKGDFLIITGPNMGGKSTYIRQVGVISLMAQIGCFVPCEEAEIAIVDAILCRVGAGDSQLKGVSTFMVEILETASILKNASKNSLIIVDELGRGTSTYDGFGLAWAIAEHIASKIGCFALFATHFHELTELSEKLPNVKNMHVVAHIEKNLKEQKHDDEDITLLYKVEPGISDQSFGIHVAEVVQFPEKIVKMAKRKANELDDLKTNNEDLKKAKLSLQEVNEGNIRLKALLKEWIRKVKEEGLHDPSKITEEASQHKIQELLRAIANEPEKENDNYLKYIKALLL
chain 2: MAGQPTISRFFKKAVKSELTHKQEQEVAVGNGAGSESICLDTDEEDNLSSVASTTVTNDSFPLKGSVSSKNSKNSEKTSGTSTTFNDIDFAKKLDRIMKRRSDENVEAEDDEEEGEEDFVKKKARKSPTAKLTPLDKQVKDLKMHHRDKVLVIRVGYKYKCFAEDAVTVSRILHIKLVPGKLTIDESNPQDCNHRQFAYCSFPDVRLNVHLERLVHHNLKVAVVEQAETSAIKKHDPGASKSSVFERKISNVFTKATFGVNSTFVLRGKRILGDTNSIWALSRDVHQGKVAKYSLISVNLNNGEVVYDEFEEPNLADEKLQIRIKYLQPIEVLVNTDDLPLHVAKFFKDISCPLIHKQEYDLEDHVVQAIKVMNEKIQLSPSLIRLVSKLYSHMVEYNNEQVMLIPSIYSPFASKIHMLLDPNSLQSLDIFTHDGGKGSLFWLLDHTRTSFGLRMLREWILKPLVDVHQIEERLDAIECITSEINNSIFFESLNQMLNHTPDLLRTLNRIMYGTTSRKEVYFYLKQITSFVDHFKMHQSYLSEHFKSSDGRIGKQSPLLFRLFSELNELLSTTQLPHFLTMINVSAVMEKNSDKQVMDFFNLNNYDCSEGIIKIQRESESVRSQLKEELAEIRKYLKRPYLNFRDEVDYLIEVKNSQIKDLPDDWIKVNNTKMVSRFTTPRTQKLTQKLEYYKDLLIRESELQYKEFLNKITAEYTELRKITLNLAQYDCILSLAATSCNVNYVRPTFVNGQQAIIAKNARNPIIESLDVHYVPNDIMMSPENGKINIITGPNMGGKSSYIRQVALLTIMAQIGSFVPAEEIRLSIFENVLTRIGAHDDIINGDSTFKVEMLDILHILKNCNKRSLLLLDEVGRGTGTHDGIAISYALIKYFSELSDCPLILFTTHFPMLGEIKSPLIRNYHMDYVEEQKTGEDWMSVIFLYKLKKGLTYNSYGMNVAKLARLDKDIINRAFSISEELRKESINEDALKLFSSLKRILKSDNITATDKLAKLLSLDIH

What was measured:
[1] = molecular target: B2; assay: far-Western, overlay or dot blot
[2] = molecular target: T1, His–rad1R218A–Rad10; assay: co-IP

Binder	fold lower binding than His–Rad1–Rad10 [1]	fold enhancement of the interaction by non-specific DNA [2]
B1	~4 fold	–
B2	–	~2 fold
